In patent US20140072613A1, “Compositions and Methods for Treating Cutaneous Scarring” (priority 2012, published 2014):

Experiments:
Assay in all cases: biochemical
Type in all cases: biochemical
266 human kinases [1] = target: 266 human kinases (Homo sapiens, UniProt P80192); conditions: MLK1(h); 100 μM
Method in brief: (§1)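 Steps: kinase transfers radiolabelled phosphate from ATP onto a positively charged substrate; the substrate is trapped on a negatively charged filter; bound radioactivity is counted by scintillation and compared with uninhibited (100%) activity.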

266 human kinases [2] = target: 266 human kinases (Homo sapiens, UniProt P00533, L858R/T790M); conditions: EGFR(T790M,L858R)(h); 100 μM
Method in brief: as §1

266 human kinases [3] = target: 266 human kinases (Homo sapiens, UniProt P07949); conditions: Ret(h); 100 μM
Method in brief: as §1

266 human kinases [4] = target: 266 human kinases (Homo sapiens, UniProt Q92630); conditions: DYRK2(h); 100 μM
266 human kinases (Homo sapiens, UniProt Q92630), sequence (Q92630 whole entry): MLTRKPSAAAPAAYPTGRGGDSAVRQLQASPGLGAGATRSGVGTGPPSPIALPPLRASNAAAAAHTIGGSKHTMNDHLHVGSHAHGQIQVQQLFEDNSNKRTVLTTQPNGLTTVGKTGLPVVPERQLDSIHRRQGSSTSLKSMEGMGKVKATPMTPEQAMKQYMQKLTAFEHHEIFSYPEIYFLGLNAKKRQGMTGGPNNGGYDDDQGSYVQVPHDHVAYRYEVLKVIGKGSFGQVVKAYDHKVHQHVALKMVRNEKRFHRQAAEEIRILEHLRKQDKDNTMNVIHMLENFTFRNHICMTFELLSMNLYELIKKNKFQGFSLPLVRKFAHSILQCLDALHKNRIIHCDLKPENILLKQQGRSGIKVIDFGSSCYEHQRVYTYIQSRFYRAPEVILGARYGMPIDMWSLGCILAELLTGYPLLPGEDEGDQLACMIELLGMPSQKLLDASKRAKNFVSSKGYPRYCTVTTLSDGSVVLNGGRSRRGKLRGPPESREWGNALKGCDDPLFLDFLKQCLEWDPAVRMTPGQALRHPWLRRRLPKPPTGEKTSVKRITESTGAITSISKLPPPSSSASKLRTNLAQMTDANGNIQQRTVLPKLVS
Method in brief: as §1

266 human kinases [5] = target: T1, 266 human kinases (Homo sapiens, UniProt Q9UL54); conditions: TAO2(h); 100 μM
T1 sequence (Q9UL54 1-1235): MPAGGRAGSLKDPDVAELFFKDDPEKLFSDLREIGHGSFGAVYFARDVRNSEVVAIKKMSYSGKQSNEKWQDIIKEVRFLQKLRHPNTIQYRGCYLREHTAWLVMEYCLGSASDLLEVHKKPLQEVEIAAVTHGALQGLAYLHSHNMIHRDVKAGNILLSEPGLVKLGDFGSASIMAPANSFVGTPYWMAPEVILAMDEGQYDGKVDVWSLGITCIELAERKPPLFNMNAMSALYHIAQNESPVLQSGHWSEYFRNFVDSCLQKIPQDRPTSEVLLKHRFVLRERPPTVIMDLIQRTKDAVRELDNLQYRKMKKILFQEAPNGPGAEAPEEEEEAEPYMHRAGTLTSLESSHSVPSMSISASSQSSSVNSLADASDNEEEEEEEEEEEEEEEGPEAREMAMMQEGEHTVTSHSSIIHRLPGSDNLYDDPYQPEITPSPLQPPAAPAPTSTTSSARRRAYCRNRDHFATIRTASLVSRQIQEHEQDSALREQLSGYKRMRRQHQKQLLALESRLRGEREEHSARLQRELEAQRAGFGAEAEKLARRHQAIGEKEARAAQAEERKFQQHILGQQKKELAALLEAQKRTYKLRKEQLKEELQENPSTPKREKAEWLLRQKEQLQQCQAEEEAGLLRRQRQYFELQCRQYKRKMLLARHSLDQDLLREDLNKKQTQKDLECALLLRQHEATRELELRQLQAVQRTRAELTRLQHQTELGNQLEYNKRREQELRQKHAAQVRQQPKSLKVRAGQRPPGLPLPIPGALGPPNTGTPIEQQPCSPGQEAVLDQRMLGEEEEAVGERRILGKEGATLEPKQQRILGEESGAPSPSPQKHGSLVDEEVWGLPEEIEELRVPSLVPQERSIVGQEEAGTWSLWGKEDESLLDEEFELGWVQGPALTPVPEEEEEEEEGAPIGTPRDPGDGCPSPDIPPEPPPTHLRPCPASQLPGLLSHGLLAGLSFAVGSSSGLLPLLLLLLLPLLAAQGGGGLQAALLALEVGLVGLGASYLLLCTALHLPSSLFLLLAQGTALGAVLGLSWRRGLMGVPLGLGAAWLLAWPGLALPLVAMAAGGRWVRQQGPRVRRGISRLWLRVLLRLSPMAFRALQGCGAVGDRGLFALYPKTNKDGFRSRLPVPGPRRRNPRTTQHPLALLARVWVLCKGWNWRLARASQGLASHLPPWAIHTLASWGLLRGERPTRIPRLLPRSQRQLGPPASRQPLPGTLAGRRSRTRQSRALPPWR
Method in brief: as §1

266 human kinases [6] = target: T2, 266 human kinases (Homo sapiens, UniProt P29322); conditions: EphA8(h); 100 μM
T2 sequence (P29322 28-1005): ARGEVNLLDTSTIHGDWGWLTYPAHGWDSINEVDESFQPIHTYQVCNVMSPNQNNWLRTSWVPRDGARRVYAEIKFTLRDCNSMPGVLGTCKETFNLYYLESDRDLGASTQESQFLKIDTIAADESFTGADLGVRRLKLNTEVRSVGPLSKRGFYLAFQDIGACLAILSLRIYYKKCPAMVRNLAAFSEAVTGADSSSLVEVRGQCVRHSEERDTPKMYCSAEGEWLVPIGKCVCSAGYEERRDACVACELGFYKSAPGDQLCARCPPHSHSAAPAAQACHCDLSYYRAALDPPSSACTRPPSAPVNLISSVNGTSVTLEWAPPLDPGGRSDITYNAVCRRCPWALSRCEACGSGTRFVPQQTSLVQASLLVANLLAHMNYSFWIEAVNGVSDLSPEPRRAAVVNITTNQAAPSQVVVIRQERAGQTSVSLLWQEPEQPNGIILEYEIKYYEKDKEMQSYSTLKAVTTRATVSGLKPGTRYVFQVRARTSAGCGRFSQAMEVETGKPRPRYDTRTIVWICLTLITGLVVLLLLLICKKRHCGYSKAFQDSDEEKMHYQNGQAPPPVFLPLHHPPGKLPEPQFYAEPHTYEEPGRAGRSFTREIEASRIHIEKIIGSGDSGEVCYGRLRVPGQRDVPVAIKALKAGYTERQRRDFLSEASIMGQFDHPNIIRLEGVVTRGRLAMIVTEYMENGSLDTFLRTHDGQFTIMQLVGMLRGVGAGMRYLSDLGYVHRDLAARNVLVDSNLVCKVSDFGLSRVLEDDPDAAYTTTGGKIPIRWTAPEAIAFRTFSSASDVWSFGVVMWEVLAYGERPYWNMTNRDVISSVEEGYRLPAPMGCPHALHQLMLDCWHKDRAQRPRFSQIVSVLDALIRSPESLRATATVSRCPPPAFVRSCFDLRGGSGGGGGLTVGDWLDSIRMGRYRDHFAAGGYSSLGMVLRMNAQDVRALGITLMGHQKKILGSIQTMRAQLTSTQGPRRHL
Method in brief: as §1

266 human kinases (Homo sapiens, UniProt P80192), sequence (P80192 whole entry): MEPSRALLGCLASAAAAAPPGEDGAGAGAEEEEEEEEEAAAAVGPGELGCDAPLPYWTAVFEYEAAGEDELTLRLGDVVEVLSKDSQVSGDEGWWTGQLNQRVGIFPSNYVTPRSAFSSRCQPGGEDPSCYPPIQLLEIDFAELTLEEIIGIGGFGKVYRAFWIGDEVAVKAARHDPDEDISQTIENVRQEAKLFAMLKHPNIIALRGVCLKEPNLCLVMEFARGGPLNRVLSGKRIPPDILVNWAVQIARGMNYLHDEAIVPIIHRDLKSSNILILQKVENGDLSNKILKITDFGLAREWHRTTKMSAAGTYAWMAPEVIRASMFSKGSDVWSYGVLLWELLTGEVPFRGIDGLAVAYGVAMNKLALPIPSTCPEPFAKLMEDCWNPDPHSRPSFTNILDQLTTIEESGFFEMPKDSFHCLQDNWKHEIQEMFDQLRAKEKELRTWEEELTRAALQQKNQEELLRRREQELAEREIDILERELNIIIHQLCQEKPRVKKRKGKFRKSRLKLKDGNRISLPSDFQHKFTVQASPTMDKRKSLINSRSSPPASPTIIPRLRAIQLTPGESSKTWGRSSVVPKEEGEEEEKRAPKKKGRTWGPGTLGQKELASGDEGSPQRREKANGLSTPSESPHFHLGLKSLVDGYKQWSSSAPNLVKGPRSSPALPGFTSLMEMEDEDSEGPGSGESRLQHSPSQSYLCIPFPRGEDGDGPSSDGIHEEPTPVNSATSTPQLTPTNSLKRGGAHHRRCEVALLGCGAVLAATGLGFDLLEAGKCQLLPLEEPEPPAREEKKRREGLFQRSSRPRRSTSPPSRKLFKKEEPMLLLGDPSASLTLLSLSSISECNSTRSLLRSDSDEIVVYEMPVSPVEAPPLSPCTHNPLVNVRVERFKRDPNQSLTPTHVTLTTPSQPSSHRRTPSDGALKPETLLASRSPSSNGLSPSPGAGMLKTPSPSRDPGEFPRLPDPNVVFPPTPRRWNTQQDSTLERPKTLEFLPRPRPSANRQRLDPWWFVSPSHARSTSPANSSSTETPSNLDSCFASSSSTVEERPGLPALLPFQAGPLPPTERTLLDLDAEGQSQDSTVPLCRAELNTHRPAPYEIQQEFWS

| Sequence | % activity (266 human kinases [1]) [%] | % activity (266 human kinases [2]) [%] | % activity (266 human kinases [3]) [%] | % activity (266 human kinases [4]) [%] | % activity (266 human kinases [5]) [%] | % activity (266 human kinases [6]) [%] |
| --- | --- | --- | --- | --- | --- | --- |
| HRRIKAWLKKIKALARQLGVAA (mammal) [MMI-0500] | 43 | 53 | 174 | 127 | 15 | 337 |
| YARAAARQARAKALNRQLGVA (mammal) [MMI-0200] | 84 | 108 | 96 | 142 | 93 | 133 |
